Like-named read-outs stand apart in the source and are kept apart here. Values belong to the binder of their own block, whether it stands above or below them.
Tests used:
[1] = molecular target: T1, extracellular domain (ECD) of human IGSF11 (VSIG3), recombinant (human, UniProt Q5DX21 23-241); assay: SPR
T1 construct: biotinylated where captured on streptavidin; tags of the reagent not always stated; also called IGSF11 (ECD domain); ECD-IGSF11
T1 sequence: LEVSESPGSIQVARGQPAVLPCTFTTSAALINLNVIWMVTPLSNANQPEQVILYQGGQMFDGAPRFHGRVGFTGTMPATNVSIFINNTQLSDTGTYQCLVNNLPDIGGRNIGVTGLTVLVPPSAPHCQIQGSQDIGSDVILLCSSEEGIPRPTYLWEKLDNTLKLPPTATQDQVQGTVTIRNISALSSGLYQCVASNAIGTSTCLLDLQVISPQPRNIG

[2] = molecular target: T2, human IGSF11 (VSIG3) ECD, His-tagged (human, UniProt Q5DX21 23-241); assay: blocking ELISA: VSIR-Fc immobilised, IgG dilution series pre-incubated with 200 nM IGSF11 ECD-His, bound IGSF11 detected with anti-His-HRP
T2 construct: in part bought (SinoBiological 13094-H08H); also called HIS-IGSF11; IGSF11-HIS; not shown: His tag
T2 sequence: T1 sequence

[3] = molecular target: T3, human IGSF11 (VSIG3) expressed on cells (human, UniProt Q5DX21 23-431); assay: FACS, M579-A2-luc cells with IGSF11 siRNA (KD, knock-down control)
T3 sequence: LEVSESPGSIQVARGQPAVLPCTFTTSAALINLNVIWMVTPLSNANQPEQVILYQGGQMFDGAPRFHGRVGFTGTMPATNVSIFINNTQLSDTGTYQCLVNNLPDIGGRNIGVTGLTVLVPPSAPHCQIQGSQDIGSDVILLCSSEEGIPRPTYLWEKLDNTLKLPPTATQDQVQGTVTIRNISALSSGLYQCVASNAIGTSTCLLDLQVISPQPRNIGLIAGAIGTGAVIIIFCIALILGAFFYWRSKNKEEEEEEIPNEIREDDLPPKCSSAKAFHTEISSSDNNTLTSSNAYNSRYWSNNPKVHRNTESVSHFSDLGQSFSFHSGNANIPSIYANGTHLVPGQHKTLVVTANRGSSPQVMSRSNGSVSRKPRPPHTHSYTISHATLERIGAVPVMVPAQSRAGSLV

[4] = molecular target: T3, human IGSF11 (VSIG3) expressed on cells; assay: IgG1 FACS DMS 273
[5] = molecular target: T2, human IGSF11 (VSIG3) ECD, His-tagged; assay: ELISA: IGSF11-HIS coated, IgG1 dilution series, anti-human antibody-HRP, TMB
[6] = molecular target: T4, IgC2 domain of human IGSF11 fused to murine IgG2a Fc (human, UniProt Q5DX21 137-241); assay: ELISA: IgC2 domain-mFc fusion coated, IgG dilution series, anti-human IgG-HRP
T4 construct: not shown: murine IgG2a Fc-region
T4 sequence: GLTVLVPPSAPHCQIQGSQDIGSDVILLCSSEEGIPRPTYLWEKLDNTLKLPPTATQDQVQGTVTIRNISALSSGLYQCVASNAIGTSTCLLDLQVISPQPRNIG

[7] = molecular target: T3, human IGSF11 (VSIG3) expressed on cells; assay: FACS, DMS 273 cells with IGSF11 siRNA (KD, knock-down control)
[8] = molecular target: T4, IgC2 domain of human IGSF11 fused to …; assay: IgG ELISA
[9] = molecular target: T5, full-length ECD of human IGSF11 fused to murine Fc (human, UniProt Q5DX21 23-241); assay: IgG ELISA
T5 construct: also called Fc-fusion IGSF11 ECD; not shown: murine Fc
T5 sequence: T1 sequence

[10] = molecular target: T1, extracellular domain (ECD) of human …; assay: BLI
[11] = molecular target: T6, IgV domain of human IGSF11 fused to murine IgG2a Fc (human, UniProt Q5DX21 23-143); assay: BLI: IgV domain-mFc captured on the sensor, IgG1 in solution, concentrations not given [Cont.) D]
T6 construct: not shown: murine IgG2a Fc-region
T6 sequence: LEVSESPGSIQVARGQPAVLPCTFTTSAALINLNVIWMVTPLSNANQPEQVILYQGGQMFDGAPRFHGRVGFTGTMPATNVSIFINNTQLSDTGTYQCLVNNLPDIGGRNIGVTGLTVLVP

[12] = molecular target: T3, human IGSF11 (VSIG3) expressed on cells; assay: FACS, M579-A2-luc cells with scrambled control siRNA (SC)
[13] = molecular target: T2, human IGSF11 (VSIG3) ECD, His-tagged; assay: IgG1 ELISA EC50 <0.02 nM
[14] = molecular target: T5, full-length ECD of human IGSF11 fused …; assay: ELISA: Fc-fusion IGSF11 ECD coated, IgG dilution series, anti-human IgG-HRP
Experimental: (§1) Binding of IgG antibodies to each of the full-length ECD of IGSF11, to the IgV domain of IGSF11 and to the IgC2 domain of IGSF11, was tested in the ELISA assay as follows: briefly, recombinant domains of Fc-fusion IGSF11 proteins were coated at 2 ug/mL on a 384-well Maxisorp plate. The surface was blocked with 2% (w/v) skim milk powder in PBST. […] After removing all unbound antibodies by 3 wash cycles with PBST, bound IgG ABPs were detected with a goat anti-human IgG antibody conjugated with horseradish peroxidase. After three wash cycles with PBST the ELISA was developed with TMB substrate.

[15] = molecular target: T1, extracellular domain (ECD) of human …; assay: BLI apparent affinity, IgG on AHC sensor, IGSF11 ECD 100 nM
Text: Briefly, various APBs were loaded on an optical biosensor via a commercially available Capture System (AHC sensors, ForteBio).

[16] = molecular target: T3, human IGSF11 (VSIG3) expressed on cells; assay: FACS, DMS 273 cells with scrambled control siRNA (SC)
[17] = molecular target: T3, human IGSF11 (VSIG3) expressed on cells; assay: IgG1 FACS HEK-OE
[18] = molecular target: T1, extracellular domain (ECD) of human …; assay: BLI: biotinylated IGSF11 on streptavidin sensor, ABP bound for 600 s, then VISTA.COMP; VISTA response normalised to that without antibody
Text: Briefly, biotinylated IGSF11 was loaded on an optical biosensor via a streptavidin surface. The IGSF11-loaded biosensor was dipped into the samples with different concentrations of anti-IGSF11 ABP, and ABPs were bound for 600s.

[19] = molecular target: T7, murine IGSF11 expressed on cells (mouse, UniProt P0C673 23-428); assay: IgG FACS MC38-wt; MC38-wt cells (murine line, not transfected)
T7 construct: MC38-IGSF11, CT26-IGSF11, MC38-wt (naturally expresses murine IGSF11)
T7 sequence: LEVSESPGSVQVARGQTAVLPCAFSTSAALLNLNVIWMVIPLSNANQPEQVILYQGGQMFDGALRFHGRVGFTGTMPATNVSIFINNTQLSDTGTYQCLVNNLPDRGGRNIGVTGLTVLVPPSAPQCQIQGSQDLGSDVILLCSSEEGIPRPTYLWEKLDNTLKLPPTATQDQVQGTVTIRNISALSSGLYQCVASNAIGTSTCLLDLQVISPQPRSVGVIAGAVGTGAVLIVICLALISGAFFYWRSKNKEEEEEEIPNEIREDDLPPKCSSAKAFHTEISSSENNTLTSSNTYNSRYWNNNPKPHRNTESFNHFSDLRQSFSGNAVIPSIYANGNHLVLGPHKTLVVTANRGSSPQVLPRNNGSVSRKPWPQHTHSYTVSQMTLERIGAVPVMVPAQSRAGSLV
Text: (§2) Unbound antibodies were removed by washing the cells three time with FACS buffer. Bound antibodies were detected with a mouse anti-human IgG antibody conjugated with AlexaFluor647.

[20] = molecular target: T3, human IGSF11 (VSIG3) expressed on cells; assay: IgG FACS Colo741
Text: as §2

[21] = molecular target: T4, IgC2 domain of human IGSF11 fused to …; assay: BLI: IgC2 domain-mFc captured on the sensor, IgG1 in solution, concentrations not given [Cont.) D]
[22] = molecular target: T6, IgV domain of human IGSF11 fused to …; assay: IgG ELISA
[23] = molecular target: T5, full-length ECD of human IGSF11 fused …; assay: ELISA: Fc-fusion IGSF11 ECD coated, IgG dilution series, anti-human IgG-HRP; remark: listed apart in the source
Experimental: as §1

[24] = molecular target: T2, human IGSF11 (VSIG3) ECD, His-tagged; assay: IgG1 ELISA EC50 0.02-0.05 nM
[25] = molecular target: T7, murine IGSF11 expressed on cells; assay: IgG FACS MC38-IGSF11
Text: as §2

[26] = molecular target: T3, human IGSF11 (VSIG3) expressed on cells; assay: IgG FACS MDA-MB-231-IGSF11
Text: as §2

[27] = molecular target: T4, IgC2 domain of human IGSF11 fused to …; assay: IgG ELISA; remark: listed apart in the source
Experimental: as §1

[28] = molecular target: T5, full-length ECD of human IGSF11 fused …; assay: IgG ELISA; remark: listed apart in the source
Experimental: as §1

[29] = molecular target: T3, human IGSF11 (VSIG3) expressed on cells; assay: IgG FACS, human IGSF11 cell lines of Table 13.4; human IGSF11 cell lines (Colo741, MDA-MB-231-IGSF11)
[30] = molecular target: T7, murine IGSF11 expressed on cells; assay: IgG FACS, murine IGSF11 cell lines of Table 13.4; murine IGSF11 cell lines (MC38-IGSF11, MC38-wt)
[31] = molecular target: T7, murine IGSF11 expressed on cells; assay: IgG FACS CT26-IGSF11
Text: as §2

Kd [1]: 250 to 500 nM
IC50 (read off the curve) [2]: ~4 nM
% binding (FACS heat-map) [3]: 2.59%
EC50 [4]: > 50 nM
EC50 (read off the curve) [5]: ~0.01 nM
EC50 (read off the curve) [6]: ~0.4 nM
% binding (FACS heat-map) [7]: 5.72%
EC50 [8]: < 1 nM
EC50 [9]: < 1 nM
Kd [10]: 1 to 10 nM
binding result [11]: no binding
% binding (FACS heat-map) [12]: 75.3%
EC50 [13]: < 0.02 nM
EC50 (read off the curve) [14]: ~0.5 nM
Kd [15]: < 15 nM
% binding (FACS heat-map) [16]: 81.1%
EC50 [17]: 10 to 50 nM
B1: A-006 (IgG1 format) (antibody, V domains shown)
VH: EVQLVESGGGLIQPGGSLRLSCAASGFTVSSNYMSWVRQAPGKGLEWVSVIYSGGSTYYADSVKGRFTISRDNSKNTLYLQMNSLRAEDTAVYYCARGNPYYYGDLQVNFDYWGQGTLVTVSS
VL: QAVVTQEPSLTVSPGGTVTLTCASSTGAVTSGYYPNWFQQKPGQAPRPLIYSTSNKHSWTPARFSGSLLGGKAALTLSGVQPDDEAEYYCLLYYGGDWVFGGGTKLTVL
notes: human IgG1 format; also called A-006-like ABP

IC50 (read off the curve) [18]: ~0.7 nM
EC50 [19]: < 0.5 nM
EC50 [20]: < 0.5 nM
B2: D-114 (IgG format) (antibody, V domains shown)
VH: EVQLLESGGGLVQPGGSLRLSCAASGFTFQFSALSWVRQAPGKGLEWVSAISYGGGSKYYADSVKGRFTISRDNSKNTLYLQMNSLRAEDTAVYYCARDSRDAYGVAFDLWGQGTMVTVSS
VL: ASVLTQPPSVSAAPGQKVTISCSGSSSNIGNNYVSWYQQLPGTAPKLLIYDNNKRPSGIPDRFSGSKSGTSATLGITGLQAEDEADYYCLSYKLSPGAYVFGGGTKLTVL

The next lines start with the binder.

B3: A-024 (IgG1 format) (antibody, V domains shown)
VH: QMQLVQSGAEVKKPGSSVKVSCKASGGTFSSYAISWVRQAPGQGLEWMGWISAYNGNTNYAQKLQGRVTMTTDTSTSTAYMELRSLRSDDTAVYYCASLGSYGYTGAFDIWGQGTMATVSS
VL: QSALTQPASVSGSPGQSITISCTGTSSDVGGYNYVSWYQQHPGKAPKLMIYEVSNRPSGVSNRFSGSKSGNTASLTISGLQAEDEADYYCSSYTSSSTLVVFGGGTKLTVL
notes: also called A-024-like ABP
Kd [1]: > 500 nM
EC50 [4]: < 10 nM
binding result [21]: no binding
EC50 [22]: < 1 nM
EC50 [9]: < 1 nM
EC50 (read off the curve) [23]: ~0.4 nM
EC50 [24]: 0.02 to 0.05 nM

B4: C-005 (IgG1 format) (antibody, V domains shown)
VH: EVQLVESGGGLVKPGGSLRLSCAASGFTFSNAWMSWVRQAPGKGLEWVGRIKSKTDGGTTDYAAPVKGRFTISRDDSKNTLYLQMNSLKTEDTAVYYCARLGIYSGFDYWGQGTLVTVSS
VL: SYELTQPPSVSVSPGQTASITCSGDKLGDKYASWYQQKPGQSPVLVIYQDSKRPSGIPERFSGSNSGNTATLTISGTQAEDEADYYCHSYTGKPSQVVFGGGTKLTVL
EC50 [25]: < 20 nM
EC50 [26]: < 10 nM
EC50 [27]: < 1 nM
EC50 [28]: < 1 nM
EC50 [29]: ~2 nM
Kd [15]: < 15 nM
EC50 [30]: ~2 nM
EC50 [31]: < 20 nM

Reference: US20220372138A1 (IOMX THERAPEUTICS, published 2022)
